The values below come from article doi:10.1101/2022.03.11.483938v2.

Substrate in data set [1]: Nc1ncnc2c1ncn2[C@@H]1O[C@H](COP(=O)(O)O)[C@@H](O)[C@H]1O
The data set can be described thus: purified protein. To be noted: hydrolysis rate gradually decreased under the selected conditions.

Substrate in data set [2]: Nc1ncnc2c1ncn2[C@H]1C[C@H](O)[C@@H](COP(=O)(O)O)O1
In words: purified protein. To be noted: constant hydrolysis rate.

B1: SiE5NT (ecto-5'-nucleotidase) (Serendipita indica DSM 11827) (protein)
chain: KVDSLVSERALQKRFVDANGNYNVTIVHTNDVHAHLDQWRAGRGTDCTPGSECISGYARIKQKVSELRQSIQDPIFLNAGDEFQGTLFFTYYGGEKISYAINEVGYDVFTLGNHEFDRGQGELAAFLKNLTFPVVCANFKTNDTAMNALNIQPYTIIEKHQLGIIGVITPDTKGTSSGAGPGTEFSDPVQAVQKAVDELQAKNITRIIALTHIGYDKDIELAQKTKGVDLIVGGHSHTLLGNFTNAMGSYPTTAKNLDGEEVFIVTSYRWGEILGKMNIAFDASGKIVSYEGEPLRLTNTTQQDPKLQAEVNEWRQPFDAMAQVVVGTSSVVLDQSICQFSECTLGNVITDAMYEYRKNAGGNVDFALINSGGIRASISEGTVTQGDILTSFPFMNGVVDLTWTGKQLLDIFEGVVSKYSTLSHHATTSFIQVSKQVKFSWNPNNVNQTRLITLEIGGQQVDVNKNYTMVTLDFLASNGDYLWGTRTDFAALDTLDVVLASYFKAHSPVGASIEGRITNSTSTTQQLPGKGSSGGSGGASALIVSGLSAGMMLLAGMMLV
The Km is the concentration of substrate that gives half-maximal velocity. A word on the kcat: it is the maximal rate divided by the concentration of active sites. For the protein B1, the Michaelis constant (Km) in “purified protein [1]” turned out to be 15.9 µM; in “purified protein [2]”, 361.6 µM. For the same protein, the kcat in the data set “purified protein [1]” turned out to be 1.1 s⁻¹; in “purified protein [2]” it was 11.9 s⁻¹.
